Measurements as given in patent publication US20260226125A1 (MEDICENNA THERAPEUTICS, published 2026).
Each block holds one molecule with its values, some of them ahead of it.

Tests used:
human CD122 (IL-2Rβ) [1] = biological target: T1, human CD122 (IL-2Rβ) (human, UniProt P14784 27-240); assay: SPR, drawn table 'Individual Receptor Subunit Binding', column 'Affinity for IL-2Rβ Kd (nM)'
T1 construct: Receptor reagent used in SPR; also called interleukin 2 receptor beta
T1 sequence (looked up): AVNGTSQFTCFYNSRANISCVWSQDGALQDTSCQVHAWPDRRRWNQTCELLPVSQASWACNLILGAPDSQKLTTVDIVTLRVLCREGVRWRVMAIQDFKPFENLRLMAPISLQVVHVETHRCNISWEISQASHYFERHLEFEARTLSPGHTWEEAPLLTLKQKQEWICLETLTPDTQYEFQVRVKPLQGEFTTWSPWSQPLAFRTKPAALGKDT

human CD25 (IL-2Rα) [2] = biological target: T2, human CD25 (IL-2Rα) (human, UniProt P01589 22-240, limits assumed); assay: SPR, drawn table 'Individual Receptor Subunit Binding', column 'Affinity for IL-2Rα Kd (nM)'
T2 construct: Receptor reagent used in SPR; also called interleukin 2 receptor alpha
T2 sequence (looked up): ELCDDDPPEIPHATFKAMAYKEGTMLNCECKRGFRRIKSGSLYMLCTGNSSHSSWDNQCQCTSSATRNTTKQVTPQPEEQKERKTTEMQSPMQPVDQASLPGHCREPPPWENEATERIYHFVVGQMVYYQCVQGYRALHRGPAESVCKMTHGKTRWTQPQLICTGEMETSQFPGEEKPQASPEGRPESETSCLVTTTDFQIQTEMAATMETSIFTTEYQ

human CD25 (IL-2Rα) [3] = biological target: T2, human CD25 (IL-2Rα); assay: SPR sensorgram, legend 0.195 to 50 nM
Description: (§1) Binding interactions between proteins using purified preparations or complex mixtures can be examined quantitatively in their native state and can assess binding specificity, stoichiometry, concentration, thermodynamics, kinetics (association, kₐ, and dissociation, kd, rate constants), and overall affinity (equilibrium dissociation constant, KD=kd/kₐ). Sensor chips (CM5) were activated (420 s at a flow rate of 10 μL/min) and 50 μg/mL of Anti-histidine antibody (in Immobilization buffer 10 mM Sodium Acetate (pH4.5)) was injected (420 s at a flow rate of 10 μL/min). For ligand capturing, samples were diluted to 5 μg/mL (HEPES, with 0.005% Tween-20, ph7.4) and injected (flow rate of 10 μL/min) to reach a capture level of ~200 RU. Receptors were diluted and up to 8 concentrations as indicated and injected (flow rate of 30 μL/min) for an association phase of 120 seconds, followed by 300 seconds dissociation.

human CD122 (IL-2Rβ) [4] = biological target: T1, human CD122 (IL-2Rβ); assay: SPR; 1:1 binding fit
Description: as §1

human CD25 (IL-2Rα) [5] = biological target: T2, human CD25 (IL-2Rα); assay: SPR; 1:1 binding fit
human CD122 (IL-2Rβ) [6] = biological target: T1, human CD122 (IL-2Rβ); assay: SPR; 1:1 binding fit; remark: listed apart in the source
human CD25 (IL-2Rα) [7] = biological target: T2, human CD25 (IL-2Rα); assay: SPR; steady state affinity
human CD25 (IL-2Rα) [8] = biological target: T2, human CD25 (IL-2Rα); assay: SPR sensorgram, no concentration legend
human CD25 (IL-2Rα) [9] = biological target: T2, human CD25 (IL-2Rα); assay: SPR sensorgram, series 62.5 to 1.953 nM
Description: as §1

[10] = biological target: T3, γc (CD132, IL-2Rγ, common gamma chain) (human, UniProt P31785 23-369); assay: cell-based or functional assay
T3 sequence (looked up): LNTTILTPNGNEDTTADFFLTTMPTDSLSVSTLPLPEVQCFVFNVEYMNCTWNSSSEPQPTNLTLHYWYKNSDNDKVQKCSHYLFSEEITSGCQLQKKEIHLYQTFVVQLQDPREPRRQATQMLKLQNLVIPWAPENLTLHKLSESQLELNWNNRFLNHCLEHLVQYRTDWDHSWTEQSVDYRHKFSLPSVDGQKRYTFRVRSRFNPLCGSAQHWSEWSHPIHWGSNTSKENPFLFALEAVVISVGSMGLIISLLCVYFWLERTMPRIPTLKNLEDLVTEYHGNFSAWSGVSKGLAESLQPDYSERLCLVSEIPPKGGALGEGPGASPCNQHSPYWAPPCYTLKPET

human CD25 (IL-2Rα) [11] = biological target: T2, human CD25 (IL-2Rα); assay: SPR; steady state affinity; remark: listed apart in the source
Description: as §1

[12] = biological target: T4, high affinity IL-2 receptor (human IL-2Rα, IL-2Rβ, IL-2Rγ) on HEK-Blue IL-2 reporter cells (human, UniProt P01589 22-272; P14784 27-551; P31785 23-369); assay: cell-based or functional assay
T4 sequence (looked up) 1: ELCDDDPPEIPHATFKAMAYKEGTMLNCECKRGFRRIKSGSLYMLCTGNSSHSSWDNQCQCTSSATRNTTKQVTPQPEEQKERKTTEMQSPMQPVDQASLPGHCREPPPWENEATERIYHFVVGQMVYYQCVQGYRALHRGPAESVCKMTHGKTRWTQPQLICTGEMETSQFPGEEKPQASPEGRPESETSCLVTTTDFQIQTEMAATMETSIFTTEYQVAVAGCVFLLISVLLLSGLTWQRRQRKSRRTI
T4 sequence (looked up) 2: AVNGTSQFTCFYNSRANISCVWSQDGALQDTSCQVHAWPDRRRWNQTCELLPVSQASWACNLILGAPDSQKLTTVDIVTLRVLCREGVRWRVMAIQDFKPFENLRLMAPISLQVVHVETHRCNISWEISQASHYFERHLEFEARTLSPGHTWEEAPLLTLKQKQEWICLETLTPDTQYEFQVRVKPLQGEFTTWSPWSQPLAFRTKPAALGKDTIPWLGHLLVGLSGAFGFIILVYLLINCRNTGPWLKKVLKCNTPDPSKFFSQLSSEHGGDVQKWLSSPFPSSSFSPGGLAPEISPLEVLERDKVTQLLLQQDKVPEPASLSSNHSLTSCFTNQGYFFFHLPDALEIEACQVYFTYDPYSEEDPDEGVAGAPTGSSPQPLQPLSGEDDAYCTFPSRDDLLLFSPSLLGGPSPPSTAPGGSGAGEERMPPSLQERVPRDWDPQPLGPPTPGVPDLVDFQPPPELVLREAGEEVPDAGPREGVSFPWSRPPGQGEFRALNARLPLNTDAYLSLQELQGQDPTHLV
T4 sequence (looked up) 3: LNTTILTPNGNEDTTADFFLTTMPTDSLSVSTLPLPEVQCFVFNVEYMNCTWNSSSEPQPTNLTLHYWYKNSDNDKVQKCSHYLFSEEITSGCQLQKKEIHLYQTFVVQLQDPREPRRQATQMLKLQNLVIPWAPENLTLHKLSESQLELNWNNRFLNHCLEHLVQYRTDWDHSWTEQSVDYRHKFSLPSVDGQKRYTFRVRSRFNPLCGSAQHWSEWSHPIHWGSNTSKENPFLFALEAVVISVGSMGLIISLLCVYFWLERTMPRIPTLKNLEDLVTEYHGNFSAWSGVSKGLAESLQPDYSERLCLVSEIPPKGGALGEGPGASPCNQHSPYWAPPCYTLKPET

[13] = biological target: T3, γc (CD132, IL-2Rγ, common gamma chain); assay: cell-based or functional assay; remark: listed apart in the source

Kd (human CD122 (IL-2Rβ) [1]): 2.7 nM | Kd (human CD25 (IL-2Rα) [2]): 14 nM
Molecule: MDNA109-Fc (Fc fusion)

binding result (human CD25 (IL-2Rα) [3]): no binding (tested: 50 nM) | Kd (human CD122 (IL-2Rβ) [4]): 5.51 nM
B1: MDNA209FA-Fc (2:1) (Fc fusion)
chain: APTSSSTKKTQLQLEHLRLDLEMILNGINNYKNPKLTRMLTAKFYMPKKATELKHLQCLEEELKPLEEVLNLAQSKNFHFDPRDVVSNINVFVLELKGSETTFMCEYADETATIVEFLNRWITFCTSIIRTLT
notes: MDNA209 plus F42A, fused to Fc; also called TP40451F; not shown: linker (if any) and Fc region

Kd (human CD25 (IL-2Rα) [5]): 31.3 nM | Kd (human CD122 (IL-2Rβ) [6]): 0.537 nM
B2: MDNA209 (free) (ligand)
chain: APTSSSTKKTQLQLEHLRLDLEMILNGINNYKNPKLTRMLTFKFYMPKKATELKHLQCLEEELKPLEEVLNLAQSKNFHFDPRDVVSNINVFVLELKGSETTFMCEYADETATIVEFLNRWITFCTSIIRTLT

Kd (human CD122 (IL-2Rβ) [6]): 3.79 nM | Kd (human CD25 (IL-2Rα) [7]): 4610 nM
B3: MDNA209(3)FA-Fc (Fc fusion)
chain: APTSSSTKKTQLQLEHLRLDLEMILNGINNYKNPKLTRMLTAKFYMPKKATELKHLQCLEEELKPLEEVLNLAQSKNFHFDPRDVVSNINVFVLELKGSETTFMCEYADETATIVEFLNRWITFCTSIISTLT
notes: MDNA209(3) plus F42A fused to Fc, made in CHO; not shown: linker (if any) and Fc region

Kd (human CD122 (IL-2Rβ) [6]): 1.59 nM | binding result (human CD25 (IL-2Rα) [8]): no binding
B4: MDNA209FEAA (free) (ligand)
chain: APTSSSTKKTQLQLEHLRLDLEMILNGINNYKNPKLTRMLTAKFYMPKKATELKHLQCLEEALKPLEEVLNLAQSKNFHFDPRDVVSNINVFVLELKGSETTFMCEYADETATIVEFLNRWITFCTSIIRTLT

binding result (human CD25 (IL-2Rα) [9]): no binding (tested: 62.5 nM) | Kd (human CD122 (IL-2Rβ) [4]): 4.59 nM
B5: MDNA209FEAA-Fc-A11 (2:1:2) (Fc fusion)
chain: APTSSSTKKTQLQLEHLRLDLEMILNGINNYKNPKLTRMLTAKFYMPKKATELKHLQCLEEALKPLEEVLNLAQSKNFHFDPRDVVSNINVFVLELKGSETTFMCEYADETATIVEFLNRWITFCTSIIRTLT
notes: Bispecific format: IL-2 antagonist mutein with FEAA, Fc, and IL-13 mutein A11; also called Construct #10; not shown: linker (if any), Fc, linker and IL-13 mutein A11

Kd (human CD25 (IL-2Rα) [5]): 35.8 nM | Kd (human CD122 (IL-2Rβ) [6]): 3.25 nM
B6: MDNA209(3)-Fc (Fc fusion)
chain: APTSSSTKKTQLQLEHLRLDLEMILNGINNYKNPKLTRMLTFKFYMPKKATELKHLQCLEEELKPLEEVLNLAQSKNFHFDPRDVVSNINVFVLELKGSETTFMCEYADETATIVEFLNRWITFCTSIISTLT
notes: MDNA209(3) (L18R, Q22E, L80F, R81D, L85V, I86V, I92F, Q126T) fused to Fc, made in CHO; not shown: linker (if any) and Fc region

fold decrease in agonist activity, HEK-Blue IL-2 reporter assay [10]: ~60 fold | binding result (human CD25 (IL-2Rα) [9]): no binding (tested: 62.5 nM) | Kd (human CD122 (IL-2Rβ) [4]): 3.75 nM
B7: MDNA209(3)FEAA-Fc (2:1) (Fc fusion)
chain: APTSSSTKKTQLQLEHLRLDLEMILNGINNYKNPKLTRMLTAKFYMPKKATELKHLQCLEEALKPLEEVLNLAQSKNFHFDPRDVVSNINVFVLELKGSETTFMCEYADETATIVEFLNRWITFCTSIISTLT
notes: MDNA209(3) (no S130R) plus F42A, E62A, fused to Fc; also called TP36872F; not shown: linker (if any) and Fc region

Kd (human CD25 (IL-2Rα) [11]): 39.1 nM | Fold against IL-2-Fc alone, HEK-Blue IL-2 reporter assay, antagonist format [12]: 15.1 fold | fold decrease in Fold against hIL-2, HEK-Blue IL-2 reporter assay, fixed agonist format [12]: 210 fold | Kd (human CD122 (IL-2Rβ) [4]): 3.91 nM
B8: MDNA209-Fc (2:1) (Fc fusion)
chain: APTSSSTKKTQLQLEHLRLDLEMILNGINNYKNPKLTRMLTFKFYMPKKATELKHLQCLEEELKPLEEVLNLAQSKNFHFDPRDVVSNINVFVLELKGSETTFMCEYADETATIVEFLNRWITFCTSIIRTLT
notes: IL-2 mutein MDNA209 (L18R, Q22E, L80F, R81D, L85V, I86V, I92F, Q126T, S130R) fused to Fc; (2:1) read as two muteins per Fc dimer; order from the name; also called MDNA209 (2:1) Fc; Construct #8; not shown: linker (if any) and Fc region

binding result (human CD25 (IL-2Rα) [9]): no binding (tested: 62.5 nM) | EC50 (agonist activity), HEK-Blue IL-2 reporter assay [13]: > 107 nM | Fold against hIL-2 (agonist activity), HEK-Blue IL-2 reporter assay [13]: ~2800 fold | Kd (human CD122 (IL-2Rβ) [4]): 4.94 nM
B9: MDNA209FEAA-Fc (2:1) (Fc fusion)
chain: APTSSSTKKTQLQLEHLRLDLEMILNGINNYKNPKLTRMLTAKFYMPKKATELKHLQCLEEALKPLEEVLNLAQSKNFHFDPRDVVSNINVFVLELKGSETTFMCEYADETATIVEFLNRWITFCTSIIRTLT
notes: MDNA209 plus F42A, E62A, fused to Fc; also called MDN209FEAA-Fc; TP36871F; not shown: linker (if any) and Fc region

binding result (human CD25 (IL-2Rα) [3]): no binding (tested: 50 nM) | Kd (human CD122 (IL-2Rβ) [4]): 4.99 nM
B10: MDNA209FEY-Fc (2:1) (Fc fusion)
chain: APTSSSTKKTQLQLEHLRLDLEMILNGINNYKNPKLTRMLTAKFAMPKKATELKHLQCLEEELKPLEEVLNLAQSKNFHFDPRDVVSNINVFVLELKGSETTFMCEYADETATIVEFLNRWITFCTSIIRTLT
notes: MDNA209 plus F42A, Y45A, fused to Fc; also called TP40452F; not shown: linker (if any) and Fc region
